Measurements from US20260263563A1, “Method of Treatment of a Thoracolumbar Deformity in a Human Subject with Achondroplasia” (Ascendis Pharma Growth Disorders A/S, priority 2023, published 2026).
Where two headings read alike, the source gives them in different places.

What was measured:
[1] = test system: prepubertal children with achondroplasia; conditions: for AGV: 100 μg CNP-38/kg/week group
Procedure: (§1) The study enrolled a minimum of 60 male and female prepubertal children with ACH aged 2 to 10 years old. The clinical trial is listed on www.clinicaltrials.gov under the ClinicalTrials.gov Identifier: NCT04085523. The objectives of the study were as follow:
(§2) This trial is a multicenter trial consisting of two treatment periods.
Height of subjects enrolled in the study of Example 3 was measured using a wall-mounted stadiometer. The same equipment was used at all visits for the same child. All instruments were calibrated as required by local requirements or per instrument manufacturer guidance prior to use.

[2] = test system: prepubertal children with achondroplasia
Procedure: as §1, §2
Participants should rest for at least 5 minutes before vital sign measurement and vital signs should be taken prior to any blood draws. The following vital signs should be measured: • Heart Rate (measured in beats per minute) • Blood Pressure (seated BP will be taken measured in mm Hg) • Temperature [measured in degrees Celsius (° C.) or Fahrenheit (° F.)]
All vital signs above must be measured at all visits. […] Orthostatic hypotension is defined as decrease in SBP of ≥20 mmHg (Stewart et al., Pediatrics, 141, 1-13, 2018). Accompanying tachycardia is defined as change of heart rate increment of ≥40 bpm and absolute orthostatic HR≥130 bpm (for ages 13 years and younger) (Singer et al., Journal of Pediatrics, 160, 222-226, 2012). Additionally, at Visit 1 and Visit 7 (in the Open-Label Extension Period), all vital signs must be monitored at 1 hour and 2 hours post injection of the study drug.

[3] = test system: prepubertal children with achondroplasia; remark: listed apart in the source
Procedure: SF-10™ Health Survey for Children is a 10-item parent-completed survey that covers a wide range of domains affecting a child's functional health and well-being (QualityMetric.com), with 5 items primarily related to physical health (PhS), and 5 items primarily related to psyhocosial health (PsS).
The survey was conducted at the following time points; baseline and week 52.
SF-10 assesses, inter alia, physical health (PhS). 5 items of the SF-10 were selected for the assessment of physical health parameters as follows: • Limited in things that take some energy • Limited in bending, lifting, stooping • Limited in kind of schoolwork/activities due to physical health • Subjects health in general • How much bodily pain or discomfort
For each response provided by a subject, a value is assigned and used to calculate the overall physical summary score in accordance with established guidelines (See The SF-10 Health Survey for Children User's Guide by QualityMetric). For reference, in accordance with the User's Guide, the SF-10 scale scores were centered so that a score of 50 corresponds to an average score in a 2006 sample (a combination of general population and supplemental disability and chronic condition samples).

[4] = test system: prepubertal children with achondroplasia; conditions: 50 and 100 μg/kg vs placebo, 52 weeks
Procedure: In the phase 2 study reported in Example 4, X-rays of the hand were taken at the placebo group (6 patients assessed), cohort 3, 50 μg/kg (9 patients assessed) and cohort 4, 100 μg/kg (7 patients assessed) and the Hand Metacarpal/Phalangeal Profile (MCPP) was assessed.

[5] = 57 patients followed for up to 65 weeks
[6] = more than 2,000 injections administered

Substance: Navepegritide [Compound (1)]
- AGV, LS Mean ([1]; 6 μg/kg/week, 52 weeks, n = 10, 95% CI [3.34, 4.84], p 0.6004 vs pooled placebo (4.35)): 4.09, n = 10 cm/year
- Δ Height SDS (ACH-specific height SDS), LS Mean ([1]; 6 μg/kg/week, n = 10, 95% CI [−0.26, 0.17], p 0.8207 vs pooled placebo (−0.08)): −0.04, n = 10
- AGV, LS Mean ([1]; 20 μg/kg/week, 52 weeks, n = 11, 95% CI [3.82, 5.22], p 0.7022 vs pooled placebo): 4.52, n = 11 cm/year
- Δ Height SDS (ACH-specific height SDS), LS Mean ([1]; 20 μg/kg/week, n = 11, 95% CI [−0.17, 0.23], p 0.4107 vs pooled placebo): 0.03, n = 11
- AGV, LS Mean ([1]; 50 μg/kg/week, 52 weeks, n = 10, 95% CI [4.43, 5.90], p 0.0849 vs pooled placebo): 5.16, n = 10 cm/year
- Δ Height SDS (ACH-specific height SDS), LS Mean ([1]; 50 μg/kg/week, n = 10, 95% CI [−0.10, 0.32], p 0.1660 vs pooled placebo): 0.11, n = 10
- AGV ([1]; 0 to 6 months): 5.167 cm/year
- AGV ([1]; time period 6 to 12 months): 5.696 cm/year
- AGV, LS Mean ([1]; 100 μg/kg/week, 52 weeks, n = 11, 95% CI [4.74, 6.11], p 0.0218 vs pooled placebo): 5.42, n = 11 cm/year
- AGV, LS Mean ([1]; 100 μg/kg/week, 52 weeks, n = 11, 95% CI [4.74, 6.11], p 0.0218 vs pooled placebo, listed as compound (1)): 5.42 cm/year
- Δ Height SDS (ACH-specific height SDS), LS Mean ([1]; 100 μg/kg/week, n = 11, 95% CI [0.02, 0.41], p 0.0283 vs pooled placebo): 0.22, n = 11
- growth in Open Label Extension ([1]; 46 children switched from placebo or lower dose to 100 μg/kg/week, after one year): improved growth
- AGV, LS Mean ([1]; Age < 5 years old, 6 μg/kg/week, n = 3, 95% CI [2.52, 6.10]): 4.31, n = 3 cm/year
- AGV, LS Mean ([1]; Age < 5 years old, 20 μg/kg/week, n = 5, 95% CI [3.30, 6.15]): 4.72, n = 5 cm/year
- AGV, LS Mean ([1]; Age < 5 years old, 50 μg/kg/week, n = 5, 95% CI [3.62, 6.52]): 5.07, n = 5 cm/year
- AGV, LS Mean ([1]; Age < 5 years old, 100 μg/kg/week, n = 3, 95% CI [4.03, 7.87]): 5.95, n = 3 cm/year
- AGV, LS Mean ([1]; Age ≥ 5 years old, 6 μg/kg/week, n = 7, 95% CI [2.87, 4.71]): 3.79, n = 7 cm/year
- AGV, LS Mean ([1]; Age ≥ 5 years old, 20 μg/kg/week, n = 6, 95% CI [3.43, 5.15]): 4.29, n = 6 cm/year
- AGV, LS Mean ([1]; Age ≥ 5 years old, 50 μg/kg/week, n = 5, 95% CI [4.39, 6.26]): 5.33, n = 5 cm/year
- AGV, LS Mean ([1]; Age ≥ 5 years old, 100 μg/kg/week, n = 8, 95% CI [4.35, 5.90]): 5.12, n = 8 cm/year
- Serious TEAE ([2]; 6 μg/kg/week (n = 10)): 1 (10.0)
- Subject with Treatment-Emergent Adverse Events (TEAE) ([2]; 6 μg/kg/week (n = 10)): 9 (90.0)
- Subjects with at Least One Treatment-Related TEAE ([2]; 6 μg/kg/week (n = 10)): 3 (30.0)
- TEAE Grade 1 ([2]; 6 μg/kg/week (n = 10)): 9 (90.0)
- TEAE Grade 2 ([2]; 6 μg/kg/week (n = 10)): 3 (30.0)
- Treatment-Related TEAE ([2]; 6 μg/kg/week (n = 10)): 3 (30.0)
- Treatment-related: Abdominal pain upper ([2]; 6 μg/kg/week (n = 10)): 0
- Treatment-related: Dizziness ([2]; 6 μg/kg/week (n = 10)): 0
- Treatment-related: Injection site reaction ([2]; 6 μg/kg/week (n = 10)): 2 (20.0)
- Treatment-related: Overdose ([2]; 6 μg/kg/week (n = 10)): 0
- Treatment-related: Sleep terror ([2]; 6 μg/kg/week (n = 10)): 0
- Treatment-related: Urticaria ([2]; 6 μg/kg/week (n = 10)): 1 (10.0)
- Achondroplasia-Related TEAE ([2]; 6 μg/kg/week (n = 10), placebo 9 (60.0)): 3 (30.0)
- Achondroplasia-Related TEAE ([2]; 20 μg/kg/week (n = 11)): 4 (36.4)
- Serious TEAE ([2]; 20 μg/kg/week (n = 11)): 0
- Subject with Treatment-Emergent Adverse Events (TEAE) ([2]; 20 μg/kg/week (n = 11)): 11 (100.0)
- Subjects with at Least One Treatment-Related TEAE ([2]; 20 μg/kg/week (n = 11)): 2 (18.2)
- TEAE Grade 1 ([2]; 20 μg/kg/week (n = 11)): 11 (100.0)
- TEAE Grade 2 ([2]; 20 μg/kg/week (n = 11)): 3 (27.3)
- Treatment-Related TEAE ([2]; 20 μg/kg/week (n = 11)): 2 (18.2)
- Treatment-related: Abdominal pain upper ([2]; 20 μg/kg/week (n = 11)): 1 (9.1)
- Treatment-related: Dizziness ([2]; 20 μg/kg/week (n = 11)): 0
- Treatment-related: Injection site reaction ([2]; 20 μg/kg/week (n = 11)): 1 (9.1)
- Treatment-related: Overdose ([2]; 20 μg/kg/week (n = 11)): 0
- Treatment-related: Sleep terror ([2]; 20 μg/kg/week (n = 11)): 0
- Treatment-related: Urticaria ([2]; 20 μg/kg/week (n = 11)): 0
- Achondroplasia-Related TEAE ([2]; 50 μg/kg/week (n = 10)): 5 (50.0)
- Serious TEAE ([2]; 50 μg/kg/week (n = 10)): 1 (10.0)
- Subject with Treatment-Emergent Adverse Events (TEAE) ([2]; 50 μg/kg/week (n = 10)): 10 (100.0)
- Subjects with at Least One Treatment-Related TEAE ([2]; 50 μg/kg/week (n = 10)): 3 (30.0)
- TEAE Grade 1 ([2]; 50 μg/kg/week (n = 10)): 10 (100.0)
- TEAE Grade 2 ([2]; 50 μg/kg/week (n = 10)): 3 (30.0)
- Treatment-Related TEAE ([2]; 50 μg/kg/week (n = 10)): 3 (30.0)
- Treatment-related: Abdominal pain upper ([2]; 50 μg/kg/week (n = 10)): 0
- Treatment-related: Dizziness ([2]; 50 μg/kg/week (n = 10)): 0
- Treatment-related: Injection site reaction ([2]; 50 μg/kg/week (n = 10)): 3 (30.0)
- Treatment-related: Overdose ([2]; 50 μg/kg/week (n = 10)): 0
- Treatment-related: Sleep terror ([2]; 50 μg/kg/week (n = 10)): 0
- Treatment-related: Urticaria ([2]; 50 μg/kg/week (n = 10)): 0
- Achondroplasia-Related TEAE ([2]; 100 μg/kg/week (n = 11)): 1 (9.1)
- Serious TEAE ([2]; 100 μg/kg/week (n = 11)): 0
- Subject with Treatment-Emergent Adverse Events (TEAE) ([2]; 100 μg/kg/week (n = 11)): 10 (90.9)
- Subjects with at Least One Treatment-Related TEAE ([2]; 100 μg/kg/week (n = 11)): 2 (18.2)
- TEAE Grade 1 ([2]; 100 μg/kg/week (n = 11)): 9 (81.8)
- TEAE Grade 2 ([2]; 100 μg/kg/week (n = 11)): 1 (9.1)
- Treatment-Related TEAE ([2]; 100 μg/kg/week (n = 11)): 2 (18.2)
- Treatment-related: Abdominal pain upper ([2]; 100 μg/kg/week (n = 11)): 0
- Treatment-related: Dizziness ([2]; 100 μg/kg/week (n = 11)): 0
- Treatment-related: Injection site reaction ([2]; 100 μg/kg/week (n = 11)): 2 (18.2)
- Treatment-related: Overdose ([2]; 100 μg/kg/week (n = 11)): 0
- Treatment-related: Sleep terror ([2]; 100 μg/kg/week (n = 11)): 0
- Treatment-related: Urticaria ([2]; 100 μg/kg/week (n = 11)): 0
- reporting of achondroplasia related treatment emergent adverse events ([2]; 100 μg/kg/week dose group, 60% in the placebo group): 9.1%
- AEs on orthostatism [2, 5]: no AEs reported on orthostatism
- serious adverse events related to the trial drug [2, 5]: no serious adverse events related to the trial drug
- withdrawals or discontinuations from the trial [2, 5]: no withdrawals or discontinuations
- total AEs related to trial drug or procedures ([2]; 57 patients, more than 1900 injections): 13
- severity of ISRs ([2]; all ISRs): mild
- injection site reactions ([2]; among more than 1900 injections): 8
- number of injection site reactions (ISRs) [2, 6]: 11
- number of patients with ISRs [2, 6]: 8
- tolerability of injections ([2]; weekly s.c. injections): well tolerated with a low frequency of injection site reactions
- SF-10 Physical Summary Score, Wk 52 (S.E) ([3]; 100 μg/kg (SC) weekly, week 52): 40.70 (6.87)
- SF-10 Physical Summary Score, Change from Baseline ([3]; 100 μg/kg (SC) weekly, week 52, placebo −3.04 (3.82)): +5.91 (1.65)
- SF-10 PsS score ([3]; 100 μg/kg weekly, after 52 weeks of treatment): improvement trend
- SF-10 PhS score compared with baseline ([3]; 100 μg/kg weekly, week 52): marked increase
- SF-10 Physical Summary, treated versus placebo ([3]; 100 μg/kg/week for one year (n=19) vs placebo (n=15), p=0.002, ages 5 years and older): statistically significant improved outcome
- ACEM Emotional Well-being, treated versus placebo ([3]; 100 μg/kg/week for one year vs placebo, p=0.045): statistically significant improved outcome
- ACEM Daily Living Function, treated versus placebo ([3]; 100 μg/kg/week for one year vs placebo, p=0.047): statistically significant improved outcome
- hand length [4]: clear trend for dose dependent increase
